Experimental data as given in patent US20230038638A1, “COMPLEMENT FACTOR I-RELATED COMPOSITIONS AND METHODS” (published 2023).

What was measured:
[1] = target: soluble human C3b (human) (UniProt P01024)
[2] = target: T1, human C4b (human) (UniProt P0C0L4)
T1 sequence: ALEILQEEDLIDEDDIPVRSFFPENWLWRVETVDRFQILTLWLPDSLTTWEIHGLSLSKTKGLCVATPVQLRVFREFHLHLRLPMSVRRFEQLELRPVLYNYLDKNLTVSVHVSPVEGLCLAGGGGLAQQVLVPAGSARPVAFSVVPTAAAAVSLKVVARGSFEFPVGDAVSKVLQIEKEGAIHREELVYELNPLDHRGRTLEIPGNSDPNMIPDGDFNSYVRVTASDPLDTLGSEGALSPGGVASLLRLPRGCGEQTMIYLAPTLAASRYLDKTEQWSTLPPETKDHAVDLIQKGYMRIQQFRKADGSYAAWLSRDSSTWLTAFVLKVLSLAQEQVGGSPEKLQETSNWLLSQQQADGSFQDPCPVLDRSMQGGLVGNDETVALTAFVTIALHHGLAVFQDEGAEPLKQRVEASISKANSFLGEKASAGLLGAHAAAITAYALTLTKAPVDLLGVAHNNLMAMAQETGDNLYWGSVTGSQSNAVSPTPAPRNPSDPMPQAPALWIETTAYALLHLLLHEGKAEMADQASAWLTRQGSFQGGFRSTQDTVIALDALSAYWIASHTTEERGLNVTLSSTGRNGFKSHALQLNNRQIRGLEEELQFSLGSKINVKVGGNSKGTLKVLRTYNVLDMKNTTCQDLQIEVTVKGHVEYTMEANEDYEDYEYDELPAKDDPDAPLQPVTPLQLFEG

Row | Substance | iC3b Screen Ref Fold (fold of reference) [1] | C4b Screen Ref Fold (fold of reference) [2] | iC3b Screen Ref Fold (fold of CFI-HSA wild type) [1] | C4b Screen Ref Fold (fold of CFI-HSA wild type) [2]
1 | CFI-HSA N531G; E461Q; R462K; F464Y (enzyme) |  |  | 1.54 | 6.37
2 | CFI-HSA F480Y (enzyme) |  |  | 1.14 | 1.84
3 | CFI-HSA variant K504R; P558S (enzyme) |  |  | 1.19 | 0.17
4 | CFI-HSA variant I560V (enzyme) | 1.31 | 1.27 |  | 
5 | CFI-HSA E457G; S507A; GGSSGG (SEQ ID NO: 6); CCP_1-4 (enzyme) |  |  | 0.01 | 0.12
6 | CFI-HSA variant Q373G (enzyme) |  |  | 0.02 | 0
7 | CFI-HSA variant R557A; S507A (enzyme) |  |  | -0.02 | 0.08
8 | CFI-HSA D506I (enzyme) |  |  | -0.02 | 0.16
9 | CFI-HSA variant E461Y (enzyme) | 0.99 | 2.38 |  | 
10 | CFI-HSA L307A (enzyme) |  |  | 0.73 | 4.05
11 | CFI-HSA fusion WT; GGSSGG (SEQ ID NO: 6); fH(ccp1); CR1(ccp16); CR1(ccp17); fH(ccp4) (from UniProt P17927) (enzyme) | 0 | 0.42 |  | 
12 | CFI-HSA H362T; R456I; S343K (enzyme) |  |  | 0 | 0.18
13 | CFI-HSA K534S (enzyme) |  |  | 0.92 | 2.65
14 | CFI-HSA variant R557A; N531M; Y403F; K504Y; E457G; E461V (enzyme) |  |  | 0.46 | 3.17
15 | CFI-HSA variant Y403F; D425K; E457G; N531G (enzyme) |  |  | 0.22 | 3.85
16 | CFI-HSA Y408L; N531G; E461Q; F464Y (enzyme) |  |  | 1.29 | 5.6
17 | CFI-HSA K534W (enzyme) |  |  | 0.81 | 2.19
18 | CFI-HSA variant Q409Y (enzyme) | -0.01 | 0.29 |  | 
19 | CFI-HSA K534N (enzyme) |  |  | 0.88 | 3.36
20 | CFI-HSA K534I (enzyme) |  |  | 0.83 | 3.03
21 | CFI-HSA H362T; R456I; D459W; S343R (enzyme) |  |  | -0.04 | 0.13
22 | CFI-HSA fusion WT; GGSSGG (SEQ ID NO: 6); CR1(ccp15); CR1(ccp16); fH(ccp3); fH(ccp4) (from UniProt P17927) (enzyme) | -0.01 | 0.25 |  | 
23 | CFI-HSA K504D; Y408L; N531G (enzyme) |  |  | 0.07 | 3.45
24 | CFI-HSA K534F (enzyme) |  |  | 0.91 | 0.97
25 | CFI-HSA K14A; D425R; Y408L-N531G (enzyme) |  |  | 1.78 | 3.94
26 | CFI-HSA variant I391G (enzyme) |  |  | 0.01 | 0.03
27 | CFI-HSA P535H (enzyme) |  |  | 0.42 | 0.22

Other lines, results leading:

Row | iC3b Screen Ref Fold (fold of reference) [1] | C4b Screen Ref Fold (fold of reference) [2] | iC3b Screen Ref Fold (fold of CFI-HSA wild type) [1] | C4b Screen Ref Fold (fold of CFI-HSA wild type) [2] | Substance
28 | -0.03 | -0.05 |  |  | CFI-HSA variant W381A; P384A (enzyme)
29 |  |  | 0.89 | 5.5 | CFI-HSA Y408L; E457G; R462K; F464Y (enzyme)
30 |  |  | -0.03 | 0.03 | CFI-HSA variant N422K; S507A (enzyme)
31 |  |  | 0.13 | 0.17 | CFI-HSA K534G (enzyme)
32 |  |  | 1.03 | 1.64 | CFI-HSA F537Y (enzyme)
33 | 1.37 | 1.44 |  |  | CFI-HSA variant E461A (enzyme)
34 |  |  | 0.15 | 3.27 | CFI-HSA K504E; Y408L; N531G (enzyme)
35 |  |  | 0.48 | 0.31 | CFI-HSA Y408L; R462K (enzyme)
36 |  |  | -0.03 | 0 | CFI-HSA variant I389G (enzyme)
37 |  |  | 0.6 | 0.68 | CFI-HSA P535M (enzyme)
38 |  |  | 0.03 | 0.3 | CFI-HSA D506K (enzyme)
39 |  |  | 0 | -0.02 | CFI-HSA D506S (enzyme)
40 |  |  | 0.72 | 0.29 | CFI-HSA D425P (enzyme)
41 |  |  | 0 | 0.26 | CFI-HSA H362T; V463S; R456I; D459W; S343R (enzyme)
42 |  |  | 1.32 | 6.38 | CFI-HSA N531G; E457G; R462K; F464Y (enzyme)
43 |  |  | 0.77 | 1.44 | CFI-HSA K534T (enzyme)
44 |  |  | 1.76 | 6.83 | CFI-HSA N531G; E461Q; F464Y (enzyme)
45 |  |  | -0.02 | 0.2 | CFI-HSA N531G; P535A; S507A; GGSSGG (SEQ ID NO: 6); CCP_1-4 (enzyme)
46 |  |  | 0.18 | 3.17 | CFI-HSA variant G406A; D425K; E457G; E461Q; N531G (enzyme)
47 | 0 | 0.04 |  |  | CFI-HSA variant G469L (enzyme)

Row | iC3b Screen Ref Fold (fold of reference) [1] | C4b Screen Ref Fold (fold of reference) [2] | iC3b Screen Ref Fold (fold of CFI-HSA wild type) [1] | C4b Screen Ref Fold (fold of CFI-HSA wild type) [2] | Substance
48 |  |  | 1.84 | 0.49 | CFI-HSA variant D425K; Y408M; E530F; K504R; P558S (enzyme)
49 |  |  | -0.03 | 0.33 | CFI-HSA variant I382G (enzyme)
50 |  |  | 1.75 | 1.79 | CFI-HSA D425H (enzyme)
51 |  |  | 1.19 | 0.82 | CFI-HSA K534E (enzyme)
52 |  |  | -0.04 | 0.13 | CFI-HSA variant E530F; S507A (enzyme)
53 |  |  | 0.59 | 4.92 | CFI-HSA E461Q; R462K; F464Y (enzyme)
54 | 0.93 | 1.2 |  |  | CFI-HSA variant G344K; Y408L; N531G (enzyme)
55 |  |  | 0.4 | 3.31 | CFI-HSA variant R557A; N531M; Y403F; K504Y; E457G; E461T (enzyme)
56 |  |  | 0.85 | 0.83 | CFI-HSA T407G; N531G (enzyme)
57 |  |  | 1.09 | 4.67 | CFI-HSA Y408L; E530R; N531G (enzyme)
58 |  |  | 2.46 | 3.53 | CFI-HSA variant D425K; E457G; E461Q; K504R; N531G (enzyme)
59 |  |  | -0.03 | 0.41 | CFI-HSA D506L (enzyme)
60 |  |  | 1.62 | 0.43 | CFI-HSA variant E530Y; P558S (enzyme)
61 |  |  | 0.95 | 0.11 | CFI-HSA variant Y408M; E530F (enzyme)
62 |  |  | 1.44 | 1.81 | CFI-HSA K534R (enzyme)
63 |  |  | -0.01 | 0.05 | CFI-HSA variant T377G; S507A (enzyme)
64 |  |  | 1.5 | 0.6 | CFI-HSA F208Y (enzyme)
65 |  |  | 1.18 | 0.38 | CFI-HSA variant F537K; P558S (enzyme)
66 | 0.84 | 0.09 |  |  | CFI-HSA variant K312A (enzyme)
